Measurements as given in article PMC11696079.

Tests used:
[1] = target: circPETH-147aa MEG/3 A, recombinant (human); experiment: SPR
[2] = target: circPETH-147aa, recombinant wild type (human); experiment: SPR

Kd [1]: 1410 nM
Kd [2]: 42.4 nM
B1: recombinant wild-type ALDOA (WT) (enzyme)
chain: PYQYPALTPEQKKELSDIAHRIVAPGKGILAADESTGSIAKRLQSIGTENTEENRRFYRQLLLTADDRVNPCIGGVILFHETLYQKADDGRPFPQVIKSKGGVVGIKVDKGVVPLAGTNGETTTQGLDGLSERCAQYKKDGADFAKWRCVLKIGEHTPSALAIMENANVLARYASICQQNGIVPIVEPEILPDGDHDLKRCQYVTEKVLAAVYKALSDHHIYLEGTLLKPNMVTPGHACTQKFSHEEIAMATVTALRRTVPPAVTGITFLSGGQSEEEASINLNAINKCPLLKPWALTFSYGRALQASALKAWGGKKENLKAAQEEYVKRALANSLACQGKYTPSGQAGAAASESLFVSNHAY
